Laboratory results from patent US20050049195A1.

Each substance was assayed against Wnt proteins (assay: cell-based or functional assay).

Question: How did the percent of injection sites with correct anterior turns of post-crossing commissural axons (open-book explant, collagen gel) turn out when “Mouse sFRP2 (secreted Frizzled-related protein 2), Myc epitope tagged (from UniProt P97299 25-295)” was run?
Answer: Its percent of injection sites with correct anterior turns of post-crossing commissural axons (open-book explant, collagen gel) is 25%.

Question: “Mouse sFRP1 (secreted Frizzled-related protein 1) (from UniProt Q8C4U3 32-314)” was tested. Which percent of injection sites with correct anterior turns of post-crossing commissural axons (open-book explant, collagen gel) did it give?
Answer: Its percent of injection sites with correct anterior turns of post-crossing commissural axons (open-book explant, collagen gel) is 11%.

Question: With “Mouse sFRP3 (secreted Frizzled-related protein 3), Myc epitope tagged (from UniProt P97401 33-323)” as the substance, how does the percent of injection sites with correct anterior turns of post-crossing commissural axons (open-book explant, collagen gel) read?
Answer: The percent of injection sites with correct anterior turns of post-crossing commissural axons (open-book explant, collagen gel) was 25%.
